Source: PMC11326307 (bioRxiv, 2024)

Key:
[1] = target: T1, Spp381-DHFR (S. cerevisiae, UniProt P38282 1-291, Cy5-TMP fluorophore bound to the DHFR tag); experiment: colocalization single molecule spectroscopy
T1 sequence (looked up): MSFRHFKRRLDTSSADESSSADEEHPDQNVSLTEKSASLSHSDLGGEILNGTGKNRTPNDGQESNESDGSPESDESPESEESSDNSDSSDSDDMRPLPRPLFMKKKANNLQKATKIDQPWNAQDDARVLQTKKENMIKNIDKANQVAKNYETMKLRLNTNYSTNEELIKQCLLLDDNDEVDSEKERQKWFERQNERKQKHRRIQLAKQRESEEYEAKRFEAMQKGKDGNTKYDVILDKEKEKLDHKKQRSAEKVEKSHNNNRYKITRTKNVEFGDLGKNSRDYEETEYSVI

[2] = target: T2, Snu23-DHFR (S. cerevisiae, UniProt Q12368 1-194, Cy5-TMP fluorophore bound to the DHFR tag); experiment: colocalization single molecule spectroscopy
T2 sequence (looked up): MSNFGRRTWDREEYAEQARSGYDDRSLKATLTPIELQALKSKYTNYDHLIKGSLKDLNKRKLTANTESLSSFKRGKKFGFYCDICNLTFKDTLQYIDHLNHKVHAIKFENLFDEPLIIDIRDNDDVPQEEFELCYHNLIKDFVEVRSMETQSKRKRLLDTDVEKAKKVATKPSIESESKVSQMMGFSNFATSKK

B1: Prp38-SNAP (natural protein)
chain: MAVNEFQVESNISPKQLNNQSVSLVIPRLTRDKIHNSMYYKVNLSNESLRGNTMVELLKVMIGAFGTIKGQNGHLHMMVLGGIEFKCILMKLIEIRPNFQQLNFLLNVKNENGFDSKYIIALLLVYARLQYYYLNGNNKNDDDENDLIKLFKVQLYKYSQHYFKLKSFPLQVDCFAHSYNEELCIIHIDELVDWLATQDHIWGIPLGKCQWNKIYNSDEESSSSESESNGDSEDDNDTSSES
modifications: SNAP-Surface 549 dye (SNAP-DY549) on the SNAP tag
Question: With B1 as the binder, how does the “event pairs (of those arriving together) with simultaneous release” value [1] read?
Answer: 77%

Question: And the “event pairs with simultaneous arrival at the pre-mRNA” value [1]?
Answer: 91%

Question: What about the “event pairs (of those arriving together) with simultaneous release” value [2] of the same binder?
Answer: 77%

Question: And the “event pairs with simultaneous arrival at the pre-mRNA” value [2]?
Answer: 91%
